Test: yeast display, Sf9 membrane polyspecificity reagent, FACS + sequencing; frameworks hold sequencing errors
Summary of the method: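 A synthetic nanobody library was expressed on Saccharomyces cerevisiae BJ5465 by galactose induction for 36–48 hours. The library was stained for 1 hour at 4 °C with 10% biotinylated, detergent-solubilized Sf9 membrane reagent and enriched with streptavidin microbeads before FACS. Low and high (top ~1%) gates were set on anti-HA fluorescence for expression and streptavidin fluorescence for reagent binding, and each polyreactivity label reflects the gate of origin.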

Sequence: QVQLVESGGGLVQAGGSLRLSCAASGSIFRTNAMGWYRQAPGKEREYVATISSDSGNTYYADSVKGRFTISRDNAKNTVYLQMNSLKPEDTAVYYCARRKVRYWSYRAANYYWGQGTQVTVSS
- polyreactivity (PSR sort gate): low polyreactivity

Sequence: QVQLVESGGGLVQAGGSLRLSCAASGSIFRVNAMGWYRQAPGKERELVAAITDGGITNYADSVKGRFTISRDNAKNTVYLQMNSLKPEETAVYYCAADTDRDFHYVVPTYDYWGQGTQVTVSS
- polyreactivity (PSR sort gate): low polyreactivity

Sequence: QVQLVESGGGLVQAGGSLRLSCAASGSIFRVYAMGWYRHAPGKERELVATITSSGGFTYADSVKGRFTISRDNAKNTVYLQMNSLKQEDTAVYYCATVRFGQYWVPSGYSWGYTYDYWGQGTQVTVSS
- polyreactivity (PSR sort gate): high polyreactivity

Sequence: QVQLVESGGGLVQAGGSLRLSCAASGSIFRVYAMGWYRQAPGKEREFVAAISYSTGSTYADSVKGRFTISRDNAKNTVYLQMNSLKPEDTAVYYCNARFRYGSRDEYDYWGQGTQVTVSS
- polyreactivity (PSR sort gate): low polyreactivity

Sequence: QVQLVESGGGLVQAGGSLRLSCAASGSIFRVYAMGWYRQAPGKERELVAAITRGGSTYADSVKGRFTISRDNAKNTVYLQMNSLKPEDTAVYYCAAQRTLYRSGFDSWGQGTQVTVSS
- polyreactivity (PSR sort gate): high polyreactivity

Sequence: QVQLVESGGGLVQAGGSLRLSCAASGSIFRVYAMGWYRQAPGKERELVAVISIAGRTNYADSVKGRFTISRDNAKNTVYLQMNSLKPEDTAVYYCNAEWDLNHLYDSWGQGTQVTVSS
- polyreactivity (PSR sort gate): low polyreactivity

Sequence: QVQLVESGGGLVQAGGSLRLSCAASGSIFRVYAMRWYRQAPGKERELVAAISKSGSSTYYADSVKGRFTISRDNAKNTVYLQMNSLKPEDTAVYYCAARRVLGEYGYWGQGTQVTVSS
- polyreactivity (PSR sort gate): high polyreactivity

Sequence: QVQLVESGGGLVQAGGSLRLSCAASGSIFRWNAMGWYRQAPGKERDLVDVINSSVGSTYYADSVKGRFTISRDNAKNTVYLQMYSLKPEDTAVYYCAADVELGWGNSVAYEYWGQGTQVTVSS
- polyreactivity (PSR sort gate): low polyreactivity

Sequence: QVQLVESGGGLVQAGGSLRLSCAASGSIFRWYAMGWYRQAPGKERDLVAAITWSGGRTYYADSVKGRFTISRDNAKNTVYLQMNSLKPEDTAVYDCAKPALVTSYRVGYNYWGQGTQVTVSS
- polyreactivity (PSR sort gate): high polyreactivity

Sequence: QVQLVESGGGLVQAGGSLRLSCAASGSIFRWYAMGWYRQAPGKERELVASISSGTRTNYADSVKGRFTISRDNAKNTVYLQMNSLKPEDTAVYYCAAPYVKRWWGYGYWGQGTQVTVSS
- polyreactivity (PSR sort gate): high polyreactivity

Sequence: QVQLVESGGGLVQAGGSLRLSCAASGSIFRWYAMGWYRQAPGKERELVAVISYGGGSTYYADSVKGRFTISRDNAKNTVYLQMNSLKPEDTAVYYCAADPTWRYYYHYTYYYWGQGTQVTVSS
- polyreactivity (PSR sort gate): high polyreactivity

Sequence: QVQLVESGGGLVQAGGSLRLSCAASGSIFRWYDMGWYRQAPGKERELVAAITWSGSTYYADSVKGRFTISRDNAKNTVYLQMNSLKPEDTAVYYCAAGSRYCNAETYSWYDYWGQGTQVTVSS
- polyreactivity (PSR sort gate): high polyreactivity

Sequence: QVQLVESGGGLVQAGGSLRLSCAASGSIFRWYDMGWYRQAPGKERELVAAITWSGSTYYADSVKGRFTISRDNAKNTVYLQMNSLKPEDTAVYYCAAGSRYSYAYTMDYWGQGTQVTVSS
- polyreactivity (PSR sort gate): high polyreactivity

Sequence: QVQLVESGGGLVQAGGSLRLSCAASGSIFRYNAMGWYRQAPGKEREFVAIISYAGVRTYYADSVKGRFTISRDNAKNTVYLQMNSLKPEDTAVYYCAADFKQKGHRTRTTYWGQGTQVTVSS
- polyreactivity (PSR sort gate): high polyreactivity

Sequence: QVQLVESGGGLVQAGGSLRLSCAASGSIFRYNAMGWYRQAPGKERELVAAISWSGGSTYYADSVKGRFTISRDNAKNTVYLQMNSLKPEDTAVYYCATRYYVNVPGRRYGYWGQGTQVTVSS
- polyreactivity (PSR sort gate): low polyreactivity

Sequence: QVQLVESGGGLVQAGGSLRLSCAASGSIFRYNAMGWYRQAPGKERELVASISISDGSTYYADSVKGRFTISRDNAKNTVYLQMNSLKPEDTAVYYCAARTRDFYYPYDYWGQGTQVTVSS
- polyreactivity (PSR sort gate): low polyreactivity

Sequence: QVQLVESGGGLVQAGGSLRLSCAASGSIFRYNAMGWYRQAPGKERELVAVITSTGSTSYADSVKGRFTISRDNAKNTVYLQMNSLKPEDTAVYYCAATRERHYSYQYLVPYYYWGQGTQVTVSS
- polyreactivity (PSR sort gate): high polyreactivity

Sequence: QVQLVESGGGLVQAGGSLRLSCAASGSIFRYYAMGWYIQAPGKERELVASITRGGTRTYYADSVKGRFTISRDYAQNTVYLQMNSLKPEDTAVYYCAATYAWYVAPTYDYWGQGTQVTVSS
- polyreactivity (PSR sort gate): high polyreactivity

Sequence: QVQLVESGGGLVQAGGSLRLSCAASGSIFRYYAMGWYRQAPGKEREFVASITYRGGRTYYADSVKGRFTISRDNAKNTVYLQLNSLKPEDTAVYYCAARTRAGAWTSKYLDYWGQGTQVTVSS
- polyreactivity (PSR sort gate): high polyreactivity

Sequence: QVQLVESGGGLVQAGGSLRLSCAASGSIFRYYAMGWYRQAPGKERELVAAIRWSGGRTYYADSVKGRFTISRDNAKNTVYLQMNSLKPEDTAVYYCAADQPDYKTNVRYYYWGQGTQVTVSS
- polyreactivity (PSR sort gate): high polyreactivity

Sequence: QVQLVESGGGLVQAGGSLRLSCAASGSIFRYYAMGWYRQAPGKERELVAAISRRGSSTYYPDSVKGRFTISRDNAKNTVYLQMNSLKPEDTAVYYCATAYRGRAWGYDYWGQGTQVTVSS
- polyreactivity (PSR sort gate): high polyreactivity

Sequence: QVQLVESGGGLVQAGGSLRLSCAASGSIFRYYAMGWYRQAPGKERELVAAISSSGGSTYYADSVKGRFTISRDNAKNTVYLQMNSLKPEDTAVYYCARDWPSYYARQYDYWGQGTQVTVSS
- polyreactivity (PSR sort gate): high polyreactivity

Sequence: QVQLVESGGGLVQAGGSLRLSCAASGSIFRYYAMGWYRQAPGKERELVAGISRSGGSTYYADSEKGRFTISRDNAKNTVYLQMNSLKPEDTAVYYCAATAYSPRGKRYDSWGQVTQVTVSS
- polyreactivity (PSR sort gate): high polyreactivity

Sequence: QVQLVESGGGLVQAGGSLRLSCAASGSIFRYYAMGWYRQAPGKERESVADITSSGGSTYYADSVKGRFTISRDNAKNTVYLQMNSLKPEDTAVSYCAREDNLRHQSDSRYDYWGQGTQVTVSS
- polyreactivity (PSR sort gate): low polyreactivity

Sequence: QVQLVESGGGLVQAGGSLRLSCAASGSIFRYYDMGWYRQAPGKERELVAAISWSGGTTYYADSVKGRFTISRDNAKNSVYLQMNSLNPEDTAVYYCNRVRYPSFVYWGQGTQVTVSS
- polyreactivity (PSR sort gate): high polyreactivity

Sequence: QVQLVESGGGLVQAGGSLRLSCAASGSIFRYYDMGWYRQAPGKERELVAAISWSGGTTYYADSVKGRFTISRDNAKNTVYLQMNSLKPEDTAVYYCNRVRYPSYDYWGQGTQVTVSS
- polyreactivity (PSR sort gate): high polyreactivity

Sequence: QVQLVESGGGLVQAGGSLRLSCAASGSIFRYYDMGWYRQAPGKERELVAAITYSGGGTYYADSLKGRFTISRDNAKNTVYLQMNSLKPEDTAVYYCAAEPYYGWQRLDYWGQGTQVTVSS
- polyreactivity (PSR sort gate): low polyreactivity

Sequence: QVQLVESGGGLVQAGGSLRLSCAASGSIFRYYTMGWYRQAPGKERELVARISSSGSTNYADSVKGRFTISRDNAKNTVYLQMNSLKPEDTAVYYCAARSFSWAGYYYWGQGTQVTVSS
- polyreactivity (PSR sort gate): low polyreactivity

Sequence: QVQLVESGGGLVQAGGSLRLSCAASGSIFRYYTMGWYRQEPGKERELVAAISCNGGRTYYADSVKGRFTISCDNAKNTVYLQMNSLKPEDTAVYYCNAVYILTETWYDYWGQGTQVTVSS
- polyreactivity (PSR sort gate): high polyreactivity

Sequence: QVQLVESGGGLVQAGGSLRLSCAASGSIFRYYVMGWYRQAPGKERELVAAINGGGGSTYYADSVKGRFTISRDNAKNTVYLQMNSLKPEDTAVYYCNAVGGTRGKYPYFKYGYWGQGTQVTVSS
- polyreactivity (PSR sort gate): high polyreactivity

Sequence: QVQLVESGGGLVQAGGSLRLSCAASGSIFSANAMGWYRQAPGKERELVAAIRRTGGSTYYADSVKGRFTISRDNAKNTVYLQMNSLKPEDTAVYFCTKRHSILYEGGYDYWGQGTQVTVSS
- polyreactivity (PSR sort gate): low polyreactivity

Sequence: QVQLVESGGGLVQAGGSLRLSCAASGSIFSANVMGWYRQAPGKERELVAAITRGGGTYYADSVKGRFTISRDNAKNTVYLQMNSLKPEDTAVYYCNDDYTLSVYGTTYWYNYWGQGTQVTVSS
- polyreactivity (PSR sort gate): high polyreactivity

Sequence: QVQLVESGGGLVQAGGSLRLSCAASGSIFSANVMVWYRQAPGKEWELVAASRRGGTTYYADSVKGRFTISRDNAKNTVYLQMNSLKPEDTAVYYCATDGNFGSYLRFAVAYDYWGQGTQVTVSS
- polyreactivity (PSR sort gate): low polyreactivity

Sequence: QVQLVESGGGLVQAGGSLRLSCAASGSIFSDYTMGWYRQAPGKERELVAAISGIGGSTYYADSVKGRFTISRDNAKNTVYLQMNSLTPEDTAVYYCAPDDYYYPYFSHDYWGQGTQVTVSS
- polyreactivity (PSR sort gate): low polyreactivity

Sequence: QVQLVESGGGLVQAGGSLRLSCAASGSIFSFYAMGWYRQAPGKERELVAAIDVSGGSTYYADSVKGRFTISRDNAKNTVYLQMNSLKPEDTAVYYCAKDVRDQYDYWGQGTQVTVSS
- polyreactivity (PSR sort gate): low polyreactivity

Sequence: QVQLVESGGGLVQAGGSLRLSCAASGSIFSFYAMGWYRQAPGKERELVAAITSDGSTDYADSVKGRFTISRDNAKNTVYLQMNSLKPEDTAVYYCAADYIVRVVSRYRYGYEYWGQGTQVTVSS
- polyreactivity (PSR sort gate): low polyreactivity

Sequence: QVQLVESGGGLVQAGGSLRLSCAASGSIFSFYAMGWYRQAPGKERELVATISSGDNTNYADSVKGRFTISRDNAKNTVYLQMISLKPEDTAVYYCAADAWGVDREYDYWGQGTQVTVSS
- polyreactivity (PSR sort gate): low polyreactivity

Sequence: QVQLVESGGGLVQAGGSLRLSCAASGSIFSFYTMGWYRQAPGKERELVARIRSSGGDTYYADSVKGRFTISRDNAKNTVYLQMNSLKPEDTAVYYCARDGYHRDYDYWGQGTQVTVSS
- polyreactivity (PSR sort gate): low polyreactivity

Sequence: QVQLVESGGGLVQAGGSLRLSCAASGSIFSGNAMGRYRQAPGKERELVAAISRSGGSTYYADSVKGRFTISRDNAKNTVYLQMNSLKPEDTAVYYCAAYRTHGPPRAIRFDYWGQGTQVTVSS
- polyreactivity (PSR sort gate): high polyreactivity

Sequence: QVQLVESGGGLVQAGGSLRLSCAASGSIFSGNAMGWYRQAPGKERELVAAISRSGGSTYYADSVKGRFTISRDNAKNTVYLQMNSLKPEDTAVYYCAAYRTHGPPRAIRFDYWGQGTQVTVSS
- polyreactivity (PSR sort gate): high polyreactivity

Sequence: QVQLVESGGGLVQAGGSLRLSCAASGSIFSGNAMGWYRQAPGKERELVAAISRSGGSTYYADSVMGRFTISRDNAKNTVYLQMNSLKPEDTAVYYCNAGRYRAGGWGVGEGYWGQGTQVTVSS
- polyreactivity (PSR sort gate): high polyreactivity

Sequence: QVQLVESGGGLVQAGGSLRLSCAASGSIFSGNAMGWYRQAPGKERELVAFISWNAVGTYYSDSVKGRFTISRDNAKNTVYLQLNSLKPEDTAVYYCSAVRYTGFYYWGQGTQVTVSS
- polyreactivity (PSR sort gate): high polyreactivity

Sequence: QVQLVESGGGLVQAGGSLRLSCAASGSIFSGNAMGWYRQAPGTERELVATISWSGGSTNYADSVKGRFTISRDNAKNTVYIQMNSLKPEETSVYYCNAYVAYWGWVYRVDYWRQGTQVTVSS
- polyreactivity (PSR sort gate): low polyreactivity

Reference: the nanobody polyreactivity screen of Harvey et al. (2022)
